Experiments:
[1] = system: AncSZ; test: phosphorylation enrichment, bacterial display (enrichment ratio); higher = better substrate or ligand; peptides without Tyr show the background
[2] = molecular target: EPHB1 (UniProt P54762); test: as above
[3] = molecular target: EPHB2 (UniProt P29323); test: as above
[4] = molecular target: FGFR1 (UniProt P11362); test: as above
[5] = molecular target: FGFR3 (UniProt P22607); test: as above
[6] = system: Fer (mouse); test: as above
[7] = molecular target: Fes (UniProt P07332); test: as above
Sequence of Fes (P07332 whole entry, looked up): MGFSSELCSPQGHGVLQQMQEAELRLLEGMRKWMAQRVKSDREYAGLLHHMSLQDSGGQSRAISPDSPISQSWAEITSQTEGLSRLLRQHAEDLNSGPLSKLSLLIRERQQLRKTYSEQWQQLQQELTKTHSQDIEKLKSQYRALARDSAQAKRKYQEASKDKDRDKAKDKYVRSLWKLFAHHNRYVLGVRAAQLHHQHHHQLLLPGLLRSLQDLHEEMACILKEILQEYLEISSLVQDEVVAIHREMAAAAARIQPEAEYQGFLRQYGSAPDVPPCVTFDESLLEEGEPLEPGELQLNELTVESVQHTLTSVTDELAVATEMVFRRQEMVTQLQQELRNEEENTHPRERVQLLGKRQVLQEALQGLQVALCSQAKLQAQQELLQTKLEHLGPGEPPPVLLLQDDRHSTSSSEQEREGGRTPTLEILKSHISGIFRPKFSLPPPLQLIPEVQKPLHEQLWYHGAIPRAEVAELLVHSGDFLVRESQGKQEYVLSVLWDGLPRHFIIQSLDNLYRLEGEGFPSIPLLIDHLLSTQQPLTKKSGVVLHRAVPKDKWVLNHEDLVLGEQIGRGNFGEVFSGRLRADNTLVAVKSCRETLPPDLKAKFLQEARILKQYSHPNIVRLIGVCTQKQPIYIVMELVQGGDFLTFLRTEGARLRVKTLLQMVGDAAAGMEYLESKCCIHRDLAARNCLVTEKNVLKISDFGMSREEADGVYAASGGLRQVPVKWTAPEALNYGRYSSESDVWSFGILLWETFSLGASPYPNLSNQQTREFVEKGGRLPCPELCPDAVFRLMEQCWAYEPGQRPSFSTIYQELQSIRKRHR

[8] = molecular target: Fyn (UniProt P06241); test: as above
[9] = molecular target: Hck (UniProt P08631); test: as above
Sequence of Hck (P08631 whole entry, looked up): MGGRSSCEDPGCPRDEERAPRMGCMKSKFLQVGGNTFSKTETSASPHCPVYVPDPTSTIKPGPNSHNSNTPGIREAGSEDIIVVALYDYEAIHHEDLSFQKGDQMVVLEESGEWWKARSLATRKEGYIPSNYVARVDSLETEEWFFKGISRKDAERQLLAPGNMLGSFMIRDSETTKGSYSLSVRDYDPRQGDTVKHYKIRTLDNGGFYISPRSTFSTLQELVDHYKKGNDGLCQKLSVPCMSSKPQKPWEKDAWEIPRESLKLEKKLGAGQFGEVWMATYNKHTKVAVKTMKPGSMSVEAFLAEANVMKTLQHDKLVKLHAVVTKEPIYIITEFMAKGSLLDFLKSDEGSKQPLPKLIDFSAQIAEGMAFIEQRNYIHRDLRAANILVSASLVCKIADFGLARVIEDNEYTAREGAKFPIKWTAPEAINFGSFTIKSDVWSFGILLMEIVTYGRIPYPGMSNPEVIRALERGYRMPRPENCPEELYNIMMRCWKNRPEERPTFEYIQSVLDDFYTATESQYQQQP

[10] = molecular target: Jak2 (UniProt O60674); test: as above
[11] = molecular target: MERTK (UniProt Q12866); test: as above
Sequence of MERTK (Q12866 whole entry, looked up): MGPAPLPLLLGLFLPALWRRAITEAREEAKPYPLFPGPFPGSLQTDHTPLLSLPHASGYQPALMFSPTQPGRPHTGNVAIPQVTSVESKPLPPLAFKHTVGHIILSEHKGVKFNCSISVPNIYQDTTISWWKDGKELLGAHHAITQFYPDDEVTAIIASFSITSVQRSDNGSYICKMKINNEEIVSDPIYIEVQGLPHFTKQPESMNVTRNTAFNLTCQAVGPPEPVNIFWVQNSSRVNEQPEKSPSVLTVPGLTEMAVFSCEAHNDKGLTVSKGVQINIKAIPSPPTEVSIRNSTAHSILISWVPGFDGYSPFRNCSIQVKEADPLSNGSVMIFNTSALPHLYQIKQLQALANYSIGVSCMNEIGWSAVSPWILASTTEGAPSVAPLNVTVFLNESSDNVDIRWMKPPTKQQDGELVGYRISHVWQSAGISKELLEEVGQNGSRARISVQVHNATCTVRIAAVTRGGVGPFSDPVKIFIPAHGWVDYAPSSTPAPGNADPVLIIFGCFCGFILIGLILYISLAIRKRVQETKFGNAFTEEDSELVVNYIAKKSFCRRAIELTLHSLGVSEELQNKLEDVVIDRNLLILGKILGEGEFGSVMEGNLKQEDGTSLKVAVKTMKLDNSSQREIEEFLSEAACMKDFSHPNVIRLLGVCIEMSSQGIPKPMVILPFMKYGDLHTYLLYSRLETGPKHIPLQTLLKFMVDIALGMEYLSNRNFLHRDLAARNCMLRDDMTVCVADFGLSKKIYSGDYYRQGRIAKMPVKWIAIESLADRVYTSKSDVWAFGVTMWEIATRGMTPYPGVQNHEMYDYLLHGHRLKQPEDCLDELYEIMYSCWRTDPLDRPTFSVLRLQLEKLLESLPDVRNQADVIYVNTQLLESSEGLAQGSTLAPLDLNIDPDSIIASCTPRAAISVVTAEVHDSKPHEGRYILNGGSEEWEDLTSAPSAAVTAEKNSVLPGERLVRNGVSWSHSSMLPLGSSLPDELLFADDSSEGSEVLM

[12] = system: c-Abl (mouse); test: as above
[13] = system: c-Src; test: as above
[14] = molecular target: Grb2 SH2 (UniProt P62993); test: SH2 binding enrichment of the phosphorylated peptide, bacterial display (enrichment ratio); higher = better substrate or ligand; peptides without Tyr show the background
Sequence of Grb2 SH2 (P62993 whole entry, looked up): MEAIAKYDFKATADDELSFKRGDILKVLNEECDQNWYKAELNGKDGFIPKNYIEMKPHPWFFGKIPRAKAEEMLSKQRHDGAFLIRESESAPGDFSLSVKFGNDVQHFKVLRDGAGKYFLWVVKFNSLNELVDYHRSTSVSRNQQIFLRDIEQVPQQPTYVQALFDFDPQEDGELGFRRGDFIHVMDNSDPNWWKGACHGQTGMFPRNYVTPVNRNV

[15] = molecular target: SHP2-C SH2; test: as above
[16] = molecular target: c-Src SH2; test: as above
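For SH2 binding enrichment of the phosphorylated peptide, bacterial display in this document: peptide library displayed on the E. coli surface as eCPX fusions, selected cells deep-sequenced, score is each peptide's frequency after selection divided by its frequency in the input.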
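For phosphorylation enrichment, bacterial display in this document: 11-residue human phosphosite peptides and single-mutation variants displayed on the E. coli surface, counted by deep sequencing, each peptide's frequency after selection divided by its frequency in the unselected input library; frequency after pTyr selection over input frequency; kinase dosed for 20-30% of maximal phosphorylation in three min.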

Sequence of EPHB2 (P29323 whole entry, looked up): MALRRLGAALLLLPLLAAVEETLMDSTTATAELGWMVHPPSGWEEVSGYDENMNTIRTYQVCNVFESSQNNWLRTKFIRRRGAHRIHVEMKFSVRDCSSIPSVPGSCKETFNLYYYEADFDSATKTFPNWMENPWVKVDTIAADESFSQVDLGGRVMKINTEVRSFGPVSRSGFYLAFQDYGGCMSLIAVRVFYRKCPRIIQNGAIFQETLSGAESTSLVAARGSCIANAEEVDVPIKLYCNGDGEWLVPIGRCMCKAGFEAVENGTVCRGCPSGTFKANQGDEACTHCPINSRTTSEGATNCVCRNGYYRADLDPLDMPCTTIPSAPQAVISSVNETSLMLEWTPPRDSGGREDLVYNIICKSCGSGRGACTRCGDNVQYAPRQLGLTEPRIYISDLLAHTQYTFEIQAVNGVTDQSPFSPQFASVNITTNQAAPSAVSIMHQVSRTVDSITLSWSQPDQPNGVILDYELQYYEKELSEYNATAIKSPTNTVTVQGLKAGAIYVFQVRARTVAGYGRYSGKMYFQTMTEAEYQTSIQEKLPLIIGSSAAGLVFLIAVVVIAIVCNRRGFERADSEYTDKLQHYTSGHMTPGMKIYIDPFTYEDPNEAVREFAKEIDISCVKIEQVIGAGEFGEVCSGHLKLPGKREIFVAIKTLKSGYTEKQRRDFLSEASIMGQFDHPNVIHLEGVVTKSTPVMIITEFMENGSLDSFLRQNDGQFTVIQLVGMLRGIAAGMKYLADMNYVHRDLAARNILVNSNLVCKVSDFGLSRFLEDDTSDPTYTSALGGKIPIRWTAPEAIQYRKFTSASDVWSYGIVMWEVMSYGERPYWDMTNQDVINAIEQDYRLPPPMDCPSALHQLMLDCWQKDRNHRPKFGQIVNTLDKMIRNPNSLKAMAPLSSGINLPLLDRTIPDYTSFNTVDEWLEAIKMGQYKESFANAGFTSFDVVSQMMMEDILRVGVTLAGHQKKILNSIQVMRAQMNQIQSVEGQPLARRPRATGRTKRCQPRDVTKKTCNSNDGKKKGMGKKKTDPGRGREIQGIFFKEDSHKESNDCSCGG
Sequence of EPHB1 (P54762 whole entry, looked up): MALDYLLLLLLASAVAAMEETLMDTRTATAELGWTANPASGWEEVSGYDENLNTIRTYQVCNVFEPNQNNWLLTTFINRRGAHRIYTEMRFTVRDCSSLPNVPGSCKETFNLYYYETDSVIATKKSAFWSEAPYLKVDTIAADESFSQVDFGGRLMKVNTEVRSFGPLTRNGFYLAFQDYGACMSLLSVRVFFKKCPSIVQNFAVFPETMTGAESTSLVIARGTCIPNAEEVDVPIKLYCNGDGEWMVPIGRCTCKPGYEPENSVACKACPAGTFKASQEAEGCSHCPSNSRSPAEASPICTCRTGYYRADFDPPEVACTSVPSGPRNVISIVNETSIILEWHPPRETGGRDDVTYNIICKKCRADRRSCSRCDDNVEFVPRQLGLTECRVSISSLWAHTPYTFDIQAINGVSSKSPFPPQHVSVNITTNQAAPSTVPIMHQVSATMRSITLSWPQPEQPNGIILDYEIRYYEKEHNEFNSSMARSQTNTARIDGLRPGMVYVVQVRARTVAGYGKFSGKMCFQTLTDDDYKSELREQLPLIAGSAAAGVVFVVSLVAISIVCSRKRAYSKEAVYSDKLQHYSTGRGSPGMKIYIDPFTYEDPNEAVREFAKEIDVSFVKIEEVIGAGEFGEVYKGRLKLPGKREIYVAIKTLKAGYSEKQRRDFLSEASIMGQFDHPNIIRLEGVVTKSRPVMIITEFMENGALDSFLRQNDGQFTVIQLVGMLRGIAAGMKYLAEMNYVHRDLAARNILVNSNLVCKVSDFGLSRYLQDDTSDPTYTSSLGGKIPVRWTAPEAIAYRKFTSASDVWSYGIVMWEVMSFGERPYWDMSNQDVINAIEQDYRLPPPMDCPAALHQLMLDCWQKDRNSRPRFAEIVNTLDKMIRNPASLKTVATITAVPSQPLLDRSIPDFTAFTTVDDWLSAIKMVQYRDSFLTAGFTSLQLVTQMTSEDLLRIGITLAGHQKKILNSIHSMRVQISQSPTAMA

Sequence	phosphorylation enrichment [1]	phosphorylation enrichment [2]	phosphorylation enrichment [3]	phosphorylation enrichment [4]	phosphorylation enrichment [5]	phosphorylation enrichment [6]	phosphorylation enrichment [7]	phosphorylation enrichment [8]	phosphorylation enrichment [9]	phosphorylation enrichment [10]	phosphorylation enrichment [11]	phosphorylation enrichment [12]	phosphorylation enrichment [13]	SH2 binding enrichment [14]	SH2 binding enrichment [15]	SH2 binding enrichment [16]
FHKALYTVRSY [PDE6C_Y266]	0.814	0.534	0.524	0.465	0.576	0.471	0.919	0.515	0.801	0.704	0.414	0.775	0.582	0.814	0.87	0.456
FIGRIYLFLTK [GARS1_Y414_YF]	1.61	0.83	0.632	0.542	0.813	0.707	1.45	0.567	0.564	1.38	0.586	1.31	0.632	1.57	1.22	0.879
FIRKDYEACKA [BBS4_Y48_YF]	0.642	0.651	0.516	0.502	0.592	0.49	0.865	0.445	0.396	0.741	0.334	0.726	0.479	1.07	0.731	0.792
FKDYFYCWNTS [AICDA_Y146_F151S]	2.62	5.4	2.58	11.2	9.31	1.03	1.44	0.618	0.599	3.67	2.14	0.973	0.885	0.73	0.542	0.375
FKGIVYSVSSD [DCX_Y70_A71S]	1.09	0.535	0.668	0.548	0.666	0.399	1.11	0.666	0.547	0.959	0.488	0.887	0.722	0.718	0.695	0.456
FKGKNYKPLDL [RPL35_Y78_K77N_YF]	0.432	0.262	0.385	0.393	0.418	0.471	0.641	0.354	0.38	0.663	0.359	0.618	0.487	0.962	0.644	0.613
FKNGDYNEVMK [LCT_Y1638]	0.882	0.578	0.415	0.579	0.548	0.41	0.903	0.389	0.541	0.595	0.388	0.578	0.388	0.744	0.642	1.77
FKPGFYNLKEK [LAMA1_Y490_C485Y_YF]	0.601	0.434	0.396	0.513	0.616	0.61	0.689	0.466	0.489	0.499	0.566	0.473	0.466	0.915	0.887	0.383
FLEKFYKFGSR [NNMT_Y25_YF]	0.723	0.592	0.6	0.571	0.548	0.389	0.746	0.413	0.341	0.679	0.433	0.551	0.365	0.883	0.789	0.428
FLQEIYNSNNQ [FGG_Y140_YF]	1.07	0.79	0.602	0.65	0.883	0.63	1.08	1.46	1.69	0.907	0.514	0.713	1.64	0.89	1.1	0.53
FLQTDYTSQVS [FRMPD1_Y846]	1.03	0.37	0.44	0.442	0.538	0.451	0.805	0.404	0.417	0.732	0.386	0.565	0.428	0.791	0.873	0.579
FPIDHYLGKEM [G6PD_Y202_R198P_YF]	0.789	0.404	0.485	0.492	0.619	0.469	0.903	0.396	0.68	0.685	0.391	0.524	0.489	0.908	0.716	0.497
FQCLRYIKQLG [SAMHD1_Y146_R143C]	0.954	0.468	0.434	0.382	0.596	0.428	1.25	0.427	0.452	1.11	0.423	0.809	0.44	0.662	0.658	0.528
FQNGMYGLHQD [SGSH_Y89_H84Y_YF]	0.665	0.437	0.543	0.462	0.555	0.454	0.709	0.599	0.598	0.733	0.456	0.552	0.828	0.748	0.724	0.459
FRIGPYQPSVP [MATR3_Y784_N787S_YF]	0.712	0.604	0.543	0.517	0.616	0.5	0.868	0.453	0.537	0.662	0.412	0.536	0.478	0.843	0.782	0.657
FSDQVYRQHRK [TH_Y230_R233H]	0.555	0.335	0.452	0.388	0.441	0.355	0.644	0.378	0.447	0.529	0.357	0.819	0.452	1.03	0.539	0.624

From the supplement of paper PMC10065799, “High-throughput profiling of sequence recognition by tyrosine kinases and SH2 domains using bacterial peptide display” (eLife, 2023)
